Test results published in the domain aggregation screens of Martell et al. (2025).

assay: soluble fraction after stress (log2 fold change); higher = more stays soluble; pooled small domains, quantitative proteomics; conditions: stress: pH 4
Procedure, shortened: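 Pooled custom libraries of small protein domains were subjected to pH 4 and measured by high-throughput quantitative proteomics. The log2 fold change in soluble amount per domain is reported, higher values meaning more remained soluble. This is used as a measure of aggregation propensity.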

In order of rising “soluble fraction (log2)” value:
1. HMSDSISLTLNGDLRRFRAHATIADLVRDIGLDPVKVAVERNLEIVSRSTLEDVVLADGDRLEIVHFV  -2.67
2. HMSDKFNALWIILNKLDKKEKVTARSLMEDLEVSERSVYRYITTLQVAGFPVDYDRAVNSYVFSDGYTLK  -2.16
3. HMSAEDQRRASQEAAYRFMQVMAGNEAGFEDAARALFAGDNHRFEVLIQSWPDDVRDHVSLLSVDAFA  -1.78
4. HMRTDQYHYLAWKQVADELGIPFDEQVNERLRGVSRMASFDIILERYDGTMSDEEKIHWTDKKNEIYKSM  -1.68
5. HMSDIISEIESQVMFKLATYEITNATEKMIEALINSEINDRRTLGFPIPNEQGRIFLVRSIQNKLAV  -1.54
6. HMRTIPDALIGRPYESVETAIVLEGLQAKRTEVFHPTIRPGTVIRLEPTSGSELLRDGVVEIFVSQGPETT  -1.47
7. HMRTAELEVWDDDELNDVVKLIQNNHNINTLKLRFQENVSFSGLSLIAAVLTKQSIILEIEY  -1.32
8. HMSDDLIILGYSMLNNALKAFHIDPDSIKKKHWDKLAQDYHLKNKNQILTDIALGKRVNIMVAHQLTTIMD  -1.32
9. HMSDGHLIKVLEVLDGGEAFLGRTANGGTARFSLGQLADIRRGSVVFVSEDRWEVVPDSAWPEI  -1.29
10. HMRTYEHALTEEEKELILIVSNLSEYKSLPPSQIVPKLADLGIYIASESSFYRVLRAHNQLHHRGR  -1.27
11. HMSDAQIKASINDLWFKYNLETFAKLNLNVNQGRVLVTGIVQNPEHRLEAIRLVWTVDGVQQVINEIQVAE  -1.23
12. HMSATIMVLRASEDIPVGTEIKDNHLTTVEVGSYGLPEGAINDKDTVLGKVAQTNIIKGDYFFPQKLGG  -1.18
13. HMRWAAIMGREVAAHSTPESLVEGKLHIRTDTTAWATQLRLMSADIVRRLNEVLGEGTVLEVDVRG  -1.12
14. HMRSHLSANLQRLRHIAGLTQKDLALAANLPRATLASLEQGEANPRLDTLLAVASALQVGLDELIAAP  -1.1
15. HMRVSNADALIGRRGKANSDIRRGDYGWVAIDGDVWKSKLADDITEDIPMGAIVEVLSRDSIILTVKP  -1.08
16. HMSDLVATKEQVVEAYKYGLGLGLDNSTLKMLLFDIRGEDVADQDKISDGMTVSEIEIWKEGMRTIAEEYL  -1.07
17. HMSAEVSEIEIQRIISYYRNQNGVPDKYNEIFDRIAAQYTDEQLKVISNFLPSDVKQYLSFNNEKYKSLG  -0.955
18. HMSDHKNANFTKVVKVAQELLQDEDDKAGITPTLIEEKISAVLAMNRRWAEGLDRAAVADELIRRFSIW  -0.951
19. HMSAGKKSFTNSEFRRFLDALGEGLIVKHKKLGEGVVVEIRGDKAVIQFGDEQRLYELKTLYEYDLLR  -0.874
20. HMSDSAFAEMRRELEALRNSNAEYERALSNFFPEAEDKALAAEAFYQNREYDELVAEREEANVIDGLKR  -0.815
21. HMSASLPAAVEDPDLPYRVGAKLRHARWGEGLLVGIQREGSDVIATVHFASVGRKRLSLQYAHLEE  -0.785
22. HMRVGADLTQRERELLALMAQGMSNQEIAKRLEIAVPTVKFHITNILDKLQVGNRTEAVIAALEHKLVP  -0.767
23. HMSDTFENILQRLIKATGRKNASEMANALGLSPQSVYSAKTKGKIPPAWIFAAAERFNASADWIYFGY  -0.759
24. HMSADDSDDRKGIDAWLTQLLANGSVKATEVYSAADAAGYSKDQAKRAKRRLAIEAVREAMDGPWFWRLD  -0.742
25. HMRSRHYRFSTPFLDRLIAEIDWNSDNALSIFNQKLVHFDFLKYFSAIQPGSIVEIENLNFIWTGKRLEAH  -0.71
26. HMSARKVTVALHTRDHADRLRRLLKHEGVSADLVAARLSHKLTDHPIEVRVNEDDIPAVLRIIENIEIF  -0.707
27. HMSDPDPAEQALLRQFMTRYAAYRRRGQHPAGAFRTASLEVFGQEPSGDLRDVIVDLESGLV  -0.59
28. HMSDLPLLEHARQNLSDDEFRILELTTIYGYRRVEVAKMLGEPISTINWKYNKLIKKVKTFYGEVYN  -0.567
29. HMSDIATLVPGPTDAELAASALRGLDAALDADTPVRLSLGEPGGEVEVPRSVLAALARVLDSFAHGEGVTL  -0.443
30. HMRWSDQKEIVTLSLDHVLVEKGRKTKEYSWREFRTFTAFEIKKSSKDQINLGFKSKGNTVIIGNF  -0.438
31. HMSDRFVRIVMNDGTVKLGQMISEDADFIRLKTNNLGELNIPKYLVLDMMDLTRSEYVRLSISNAG  -0.426
32. HMRVKLVKKSILASGGENIRVDKFLSNHILTMTRTQIKKLFLDGLVQVNKSFVKPGSILKGNEIITFSIPE  -0.412
33. HMSANVSMEEALRRTSQAHSLAGKWMRRVLQMAQGRDLIEQMQREAQEAHLPELIGMSVQLEFIRRG  -0.363
34. HMSDIIVQGNRRLDTDLIITDSQIREIGTDEKSLSLAVKNLYKTGYFENVQIFKDNSVVFINVKENQ  -0.358
35. HMSDGIPDLRNLNFLSPQEGDYLNESDRVFGVTINGDGQAYPLRIVNAHEMVNDTLGGEPISLM  -0.34
36. HMSDYVLLYSGLNTSDTTFLAYSFQEKGIRYKMPNPDEIEVRVQDVDQARRIAAGAQLGGQVS  -0.297
37. HMSDMIGQNIRRLRTEKQMTQKALADKLFVTAQAVSRWENGEVEPSLSTVTEIARIFNVSADEILGI  -0.284
38. HMSALTELPVKTVNGKKYHYYVVKQHETVYALSKRFGITPEQLIKYNPSAEDGLQIDQELLFPATEI  -0.282
39. HMRSVLSDEIYLLIRKMIFNYEILPGAKVNIDALAKKLDVSQTPVREALSRLESDGLIVKEPLKGFRATD  -0.239
40. HMSDDSYLVALAEAYKNATSWDIRRQVLSIMTGVSSYKEISRYIPGLTQYRLSISNLHRLQYGRAAPVP  -0.217
41. HMRTSPGADYEKTYYTIQSGDNLGAIAEKMGVSVADLKDWNDISGTKIYAGKKLVIYVKKGST  -0.209
42. HMRTSIWTAIAHSLRSDIGSGVYGPDDKLPTESALAARFGVNRHTVRHAIKALTDEGLVLPRRGAGVFVTS  -0.207
43. HMSDDIPVHYRLDVNDAARALKLLTDNGFSAETAESGLNVYMTRLQSAEAARLLVENNIAVYGLTAV  -0.196
44. HMSALAQDGDLVQLQGAGYKSHILRLKAGEVLQTHRGVIQHDAVIGQPWGARLQSHTGSPFYLFQPGLADL  -0.187
45. HMSAEVMLRRLIDENDPSSENARYILAVMLERKKILAPVDVKNEKKSKMLFYEHQKTGEAFIVRDP  -0.17
46. HMSDSLVLTGVAYVDGKPVVTLFDKVKKESLVVTDQPNLKGWTLVEATQSSDIKRATAKVNIGGEPVSIRY  -0.162
47. HMSAPEGWMNRGDLRDNFRIQYPVTDRIIASYRESHPEWFGTYLSKTSKSLEYFHPDLVAKVREAAN  -0.145
48. HMRSIMAVSNYRHKKILEMVYQRKSVSADELAAEFGVSKITIRRDLDTLAMDKLLERTRGGAISISD  -0.128
49. HMSDPELNDNEKKIYDIIFNKKSMDLTELKNLSELSNKQWDKGIKSLSKQDFVKVIKTEEALIVELV  -0.126
50. HMRTVLSDETYLRIREMLLTHDIAPGERINIDALARELDVSQTPVREALARLESEDLVTKEPLRGYTATK  -0.123
51. HMRTLKDSTEYLIRSMLLRGEMKVGEIYSANALAKELNISNSPVREAMMSLVDRGLLENVRNRGFRVV  -0.115
52. HMRTITIDDSIAGKRLDEALTLLGAESSRTKVKLLFSSPNGVLVNGEKEKPHYRVEAGDVIQFGELPKK  -0.104
53. HMSDYKSALQEAVQTNKQSIEYVLIKESGPAHNKTFTFEVRIDNISYGVGTAKSKKEAEQIAAKDALDKLV  -0.103
54. HMSDPSAQADALFNEGKTAEAFNVLLRLIEDSPEDQREDYRVRLLDLFRIAGNTPEVKAARRRLSALLM  -0.101
55. HMSAQDLIVRRDSARIEARVTEISPTEIRYKRASNPDGPTYVLPLGDVRSIRYANGEEEVFAPA  -0.0969
56. HMRSVTLQTDREGDILYVDGKQIGVSPQRLELSYGVHTIRAERGEQHTEKELEVTETGGETVVTLGFG  -0.0908
57. HMRVPQWLVDKIAAAGIDTHRSGPALKALAAKAGTPEQLDQAIARAKALRRRTGSTQSLNVGLLGSILEGT  -0.0808
58. HMRTLRENIMDYFKQQTIIQKSSVILLPMSKRQLADYFGVQRPSLFRELKKLKEEGIIEINNRTITIK  -0.0293
59. HMRSGEDESFSAGLLEYPHYTRPAEFEGHRIPDILTSGDHAKVDAWRQEMSEHITRERRPDLWEMYKKK  0.0228
60. HMSDIQKGTQINLVNEPLYVSSKTSIVSTYKTGTYYTWGFEANNRIAITNKLENIGVKGQVTGWINKP  0.0239
61. HMRSYTPGSAFRLSSVPVYNAETGPSIGVRSGTYYIHSLPVSNGRIRMTNLISRVGKPGQVSFWVEISR  0.0269
62. HMSAPQKWDGSLQDFIRFKQEAKTLMDNIPNKRLALNAILETISDGKMRKRLAKYDGPESALKSLELEFGN  0.0286
63. HMRVQELARDLGVEADTLIALLRQMGIPVTGARSAINDAQQAKVLAKIERERRAGHSDPAKAIQAVLEEAS  0.0597
64. HMRTGLSGMIGEIGIVKQAIDPEGKVAVHGELWKARADVALAAGQTVRVVAVDGLTMTVEATDSK  0.0837
65. HMSAQQTFLRDAMRRLNMTRDSFAERIGVRRRALDTWLLPEDSSEYRTMPSIVEKFVGEILGREA  0.112
66. HMRTTTGSEGMIGSIGKAKTDLAPDGKIFIHGELWDATSSSPVSAGQKIEVTQIEGLKLHVKPVL  0.12
67. HMSDEVNTDKAFRAIDSTLNRNVKGIAPRDHTLLRNTMITYFKSNDYIDYDTMIQSTLENYKPTELEQDKM  0.135
68. HMSAAELFEERQRQYLRGRKSTKNIADNHGTIILRAGETITDQAIDKAKVAGKLVELVMNNE  0.144
69. HMRSVPNVAGLGMDGAAFQLGKAGFAIGTITPADDPKAVVGSIQRTEPAAGTVADRDTVVNLFQV  0.22
70. HMSDKLTLPVQINGVFRYTIEINPSMQKDEIIDLVKNEERTAKYKQDKEIKNVIVVPGKIVNIII  0.22
71. HMSDTSAIEKIIDEVLSDESSQKAINDIKNGNEKVYGFLVGQVMKKSQGKANPGLVQKMLREKIAK  0.22
72. HMSDEAGKVLQLLRENGGYLPYNDRSDPEDIYAFFSMSKKTFKMTAGNLYKQKKIIFTNTGIKLTE  0.317
73. HMRTYYEILGVSKNASLHEIQKAYRELALKYHPKNNSDPTAEEKFTQINEAYTHLSDAARRRSYDDL  0.362
74. HMRTKEGLASQLEKIPGIGPVKRKALLKKFGSIDAIAAASKEELMLTDGITSSLADAIRDYF  0.391
75. HMRVNINVSENILDWVMKRVNPSVLSSKQGELLYAWKEGRKVPTYNQIEKMSKVTGIPLGYFFLEKPPVE  0.411
